Values quoted from earlier work in paper PMC12874384.

What was measured:
Glu165 [1] = target: Glu165 (UniProt position 165, VVLAYEPVWAI); assay: kinetics (competitive inhibition, pH dependence of Ki); details: enzyme•PGA trianion complex (closed, inhibitor-bound)
Glu165 [2] = target: Glu165 (UniProt position 165, VVVAYEPVWAI); assay: as above; details: enzyme•PGA trianion complex (closed, inhibitor-bound)
Glu165 [3] = assay: as above; details: enzyme•PGA trianion complex (closed, inhibitor-bound)
Asp260 = Asp260 (UniProt position 260, SCGVADLITTC); assay: kinetics (pH-rate profile); details: kcat/Km profile for reaction of DHAP dianion in the presence of NADH
Lys204 [4] = target: T1, Lys204 (UniProt position 204, ICGALKNVVAV); assay: kinetics (pH-rate profile); details: kcat/Km profile for reaction of DHAP dianion in the presence of NADH
Lys204 [5] = target: T1, Lys204; assay: kinetics (pH-rate profile of chemical rescue); details: K120A variant with EtNH3+ activator, DHAP and NADH

For “Triosephosphate isomerase, chicken (cTIM) (Gallus gallus)”, the pKa (Glu165 [1]) is listed as “≈ 11”.

For “Triosephosphate isomerase, yeast (yTIM) (Saccharomyces cerevisiae)”, the pKa (Glu165 [2]) is given as “≈ 11”.

For “TbbTIM I170A variant (I172A in TbbTIM numbering) (Trypanosoma brucei brucei; I170A)”, the pKa (Glu165 [3]) is given as 7.7.

For “hlGPDH K120A variant (Homo sapiens; K120A)”, the pKa (Asp260) is listed as 5.0, the pKa (Lys204 [4]) is listed as 7.6 and the pKa (Lys204 [5]) is listed as 7.7.

For “yTIM Y208F variant (Saccharomyces cerevisiae; Y208F)”, the pKa (Glu165 [2]) is listed as 6.3.

For “yTIM S211A variant (Saccharomyces cerevisiae; S211A)”, the pKa (Glu165 [2]) is given as 8.2.

For “cTIM loop 7 replacement variant (L7RM, 208-TGAG-211) (Gallus gallus; Y208T;G210A;S211G)”, the pKa (Glu165 [1]) is given as 6.7.

For “Glycerol 3-phosphate dehydrogenase [NAD+], human liver (hlGPDH) (Homo sapiens)”, the pKa (Asp260) is listed as 4.4 and the pKa (Lys204 [4]) is listed as 7.6.

In the case of “TbbTIM P166A/I170A double variant (P168A/I172A in TbbTIM numbering) (Trypanosoma brucei brucei; P166A;I170A)”, the pKa (Glu165 [3]) is given as 7.8.

In the case of “TbbTIM P166A variant (P168A in TbbTIM numbering) (Trypanosoma brucei brucei; P166A)”, the pKa (Glu165 [3]) is given as 9.3.

For “Triosephosphate isomerase, Trypanosoma brucei brucei (TbbTIM) (Trypanosoma brucei brucei)”, the pKa (Glu165 [3]) is listed as “≈ 11”.
